Assay results from patent US20260265780A1.

Molecular target: CD8 (protein not named in Table 16)

B1: CD8 binder 97 (VHH) (VHH)
VHH: QVQLVESGGGLVQAGGSLRLSCAASGRTFSGYVMGWFRQAPGKQRKFVAAISRGGLSTSYADSVKGRFTISRDNAKNTVFLQMNTLKPEDTAVYYCAADRSDLYEITAASNIDSWGQGTLVTVSS
Highest Response (nm): 0.465 nm | Kd: 5.3 nM | koff: 0.000272 s⁻¹ | kon: 51400 M⁻¹ s⁻¹
